Test results: patent publication US20190389966A1 (Regeneron, published 2019)

Molecular target: T1, MUC16 on OVCAR-3 cells (human, UniProt Q8WXI7 1-14507)
T1 construct: whole, on cells; also called Mucin 16
Assay: FACS binding to OVCAR-3 cells

B1: BSMUC16/CD3-001 (bispecific antibody, V domains shown)
VH 1: QVQLVESGGGLVKPGGSLRLSCAASGFTFSNYYMSWVRQAPGKGLEWISYISGRGSTIFYADSVKGRITISRDNAKNSLFLQMNSLRAEDTAVYFCVKDRGGYSPYWGQGTLVTVSS
VH 2: EVQLVESGGGLVQPGRSLRLSCAASGFTFDDYSMHWVRQAPGKGLEWVSGISWNSGSKGYADSVKGRFTISRDNAKNSLYLQMNSLRAEDTALYYCAKYGSGYGKFYHYGLDVWGQGTTVTVSS
VL: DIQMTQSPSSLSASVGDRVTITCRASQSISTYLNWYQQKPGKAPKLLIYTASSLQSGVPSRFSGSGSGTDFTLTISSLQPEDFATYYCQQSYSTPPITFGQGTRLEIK
notes: It was biotinylated in the ELISA and DFO/89Zr-labelled at Gln 295 for PET; also called anti-MUC16xCD3 bispecific antibody; BSMUC16/CD3-0001
- binding result: binds
